Test results published in PMC3973348, “Structural integrity of the PCI domain of eIF3a/TIF32 is required for mRNA recruitment to the 43S pre-initiation complexes” (Nucleic Acids Research, 2014).

Target: T1, eIF3c/NIP1 (S. cerevisiae, UniProt P32497 1-812)
T1 construct: eIF3c/NIP1 subunit of yeast eIF3; 50 ug = 0.5 nmol (about 100 kDa) fits a whole protein (surmise); source: purified
Experiment: ITC; VP-ITC; 100 uM a/TIF32^276-494 injected in 20 ul aliquots into the cell with 10 uM c/NIP1; 150 mM KCl, 10 mM Hepes pH 7.5, 5% glycerol
Details: both partners purified

T1 sequence (P32497 whole entry): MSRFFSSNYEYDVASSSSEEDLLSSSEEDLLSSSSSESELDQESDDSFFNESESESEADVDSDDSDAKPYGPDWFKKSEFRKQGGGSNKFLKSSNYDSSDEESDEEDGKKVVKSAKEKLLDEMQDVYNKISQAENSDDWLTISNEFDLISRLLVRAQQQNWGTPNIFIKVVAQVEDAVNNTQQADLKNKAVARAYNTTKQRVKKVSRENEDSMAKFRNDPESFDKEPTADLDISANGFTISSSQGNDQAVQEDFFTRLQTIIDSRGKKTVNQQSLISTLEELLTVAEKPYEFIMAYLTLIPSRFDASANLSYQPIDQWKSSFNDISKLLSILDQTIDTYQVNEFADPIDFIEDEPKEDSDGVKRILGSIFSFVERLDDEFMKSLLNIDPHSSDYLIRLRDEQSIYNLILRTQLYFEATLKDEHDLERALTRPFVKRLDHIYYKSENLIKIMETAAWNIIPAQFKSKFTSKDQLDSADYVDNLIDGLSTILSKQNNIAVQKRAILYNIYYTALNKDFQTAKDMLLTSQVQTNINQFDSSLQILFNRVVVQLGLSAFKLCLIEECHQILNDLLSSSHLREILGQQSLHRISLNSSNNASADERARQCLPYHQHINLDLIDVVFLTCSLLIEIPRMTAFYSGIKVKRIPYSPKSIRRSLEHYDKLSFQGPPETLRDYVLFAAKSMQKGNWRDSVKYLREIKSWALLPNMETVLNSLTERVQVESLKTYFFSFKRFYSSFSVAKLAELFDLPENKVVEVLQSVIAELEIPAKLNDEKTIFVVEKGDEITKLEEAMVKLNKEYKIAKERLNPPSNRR

B1: a/TIF32^276-494 (PCI domain of eIF3a/TIF32) (domain or fragment, S. cerevisiae, UniProt P38249 276-494, looked up)
chain: PSTLANYYENLVKVFFVSGDPLLHTTAWKKFYKLYSTNPRATEEEFKTYSSTIFLSAISTQLDEIPSIGYDPHLRMYRLLNLDAKPTRKEMLQSIIEDESIYGKVDEELKELYDIIEVNFDVDTVKQQLENLLVKLSSKTYFSQYIAPLRDVIMRRVFVAASQKFTTVSQSELYKLATLPAPLDLSAWDIEKSLLQAAVEDYVSITIDHESAKVTFAKD
notes: Detailed purification scheme is in Supplementary Methods; also called a/TIF32-PCI; a/TIF32 PCI domain
  Kd: 158 nM
  dH: -10.2 kcal/mol
  stoichiometry N: 0.944
